# Paper PMC10292028
# Changes are numbered by the printed parent chain. Numbers in names are those of the source.
# B1: 6DMATSmo (Micromonospora olivasterospora) (protein)
# chain: MAGLSVSDHLDGQLARLCEVAGADPVEPRNLLAGLLGPVGPRPLYEPPAWPSGVSDDHTPVEFSIAFNEAEPPTLRILGETLGSPPGPLANLSATRGFLDAQARRAGLSTSRLDSVRDLFATDDPQGDFAMWCSLVFRSSRRPEFKVYLNPEVKGVERSPALVSEALHRLGLGASYRALLDHGVRPGELGRGDRLTFFAVDLHDGPQARVKLYLTHHEAEVWDVTRAASVVDGVDVAEIEEFCVVAGGGTRRFDGRPLVGSYTFTEGADRPVGYSIYVPIRSYVTDDQEARDRVAALLVRYGFDTDGLDRAIAAVTPRPLRDGVGLIAHVSLRLGAPRPGVTVYLSAEAYRVSPPRPRRMPAGRDVSPAPVGRTRP
# B2: 6DMATSmo (Micromonospora olivasterospora; H329Y/Y277H) (protein)
# chain: B1 chain with Y277H, H329Y
# B3: 6DMATSmo (Micromonospora olivasterospora; H329Y) (protein)
# chain: B1 chain with H329Y
# B4: 6DMATSmo (Micromonospora olivasterospora; Y277H) (protein)
# chain: B1 chain with Y277H
# B5: PriB (Streptomyces sp. RM-5-8) (protein)
# chain: MGGPMSGFHSGEALLGDLATGQLTRLCEVAGLTEADTAAYTGVLIESLGTSAGRPLSLPPPSRTFLSDDHTPVEFSLAFLPGRAPHLRVLVEPGCSSGDDLAENGRAGLRAVHTMADRWGFSTEQLDRLEDLFFPSSPEGPLALWCALELRSGGVPGVKVYLNPAANGADRAAETVREALARLGHLQAFDALPRADGFPFLALDLGDWDAPRVKIYLKHLGMSAADAGSLPRMSPAPSREQLEEFFRTAGDLPAPGDPGPTEDTGRLAGRPALTCHSFTETATGRPSGYTLHVPVRDYVRHDGEARDRAVAVLREHDMDSAALDRALAAVSPRPLSDGVGLIAYLALVHQRGRPTRVTVYVSSEAYEVRPPRETVPTRDRARARL
# Legend:
# [1] = substrate: N[C@@H](Cc1c[nH]c2ccccc12)C(=O)O; experiment: HPLC end-point assay, Michaelis-Menten fit; assay type: biochemical, Micromonospora olivasterospora; settings: 2 mM DMAPP, 50 mM Tris pH 8.0, 37 °C
# [2] = substrate: N[C@@H](Cc1c[nH]c2ccccc12)C(=O)O; experiment: HPLC end-point assay, Michaelis-Menten fit; assay type: biochemical, Streptomyces sp. RM-5-8; settings: 2 mM DMAPP, 50 mM Tris pH 8.0, 37 °C
Protein,Km [1],kcat [1] [s⁻¹],kcat/Km [1] [M⁻¹ s⁻¹],Km [2],kcat [2] [s⁻¹],kcat/Km [2] [M⁻¹ s⁻¹]
B1,(33.1 ± 2.5) × 10^−2 mM,0.0917 ± 0.00167,277,,,
B2,1000 ± 100 µM,0.00182 ± 3.33e-05,1.82,,,
B3,(26.7 ± 1.6) × 10^−2 mM,0.000783 ± 1.17e-05,2.93,,,
B4,(38.2 ± 0.1) × 10^−2 mM,0.00108 ± 3.33e-05,2.83,,,
B5,,,,(42.9 ± 6.9) × 10^−2 mM,0.33 ± 0.0133,770
